In publication PMC3581536 one finds stoichiometry N (MazEa per MazFa (molar ratio)) data, which are given here for one substance.

The target of this assay is MazFa tagged with 6 histidine at its C-terminus (Anabaena sp. PCC 7120). Kind of assay: pull-down; MazEa and MazFa-His6 co-expressed in E. coli BL21(DE3)(pJS798); co-purified on Ni2+-NTA His.Bind resin under native conditions; 15% SDS-PAGE, bands identified by MALDI-TOF MS, densitometry with Image J.

Regarding MazEa (natural protein), the stoichiometry N (MazEa per MazFa (molar ratio)) was 0.5.
